This passage reports Km and kcat results from publication PMC12734981, “A CALB-like Cold-Active Lipolytic Enzyme from Pseudonocardia antarctica: Expression, Biochemical Characterization, and AlphaFold-Guided Dynamics” (Marine Drugs, 2025).

Substrate in data set [1]: CC(=O)Oc1ccc([N+](=O)[O-])cc1
Briefly: p-nitrophenol release, initial rates, nonlinear Michaelis-Menten fit. The format is biochemical, Pseudonocardia alni. Particulars: 100 mM Tris-HCl pH 7.4, 100 mM NaCl, 25 °C.

Substrate in data set [2]: CCCC(=O)Oc1ccc([N+](=O)[O-])cc1
The data set is described as above. It counts as biochemical, Pseudonocardia alni. Particulars: 100 mM Tris-HCl pH 7.4, 100 mM NaCl, 25 °C.

B1: PanLipΔN (Pseudonocardia alni) (protein)
chain: TLPDETFGPVDRPGPALSVPPDQLDAAVRCSANATDADRDVALFVPGTTLTPEVNFGFNWFAALDDLGRPYCSVTLPNNAMTDTQIAAEYVVHAIRHVHGISGRKVDVLGHSQGGTEPRFALRFWPDLRGMVDDYVAFGTTNHGSIAINAALCTPATGCAEALWQQTLNSHYTQAMNSYQETFAGISYTQIYTRTDEFVQPNLDDSGTTSLHGGGGEISNVALQDVCLTEAASEHIAVGTYSPVAYALATDALDHDGPADPARVDRGVCTQVFMPGVDPLTFPTDYAATLGLIANQLALAPRVGSEPELRPYTLADDRQG
notes: Signal peptide (30 residues) and proline-rich putative propeptide (27 residues) removed; ~first 57 residues missing (methods say first 27 of full-length); starts at TLPDE by primer; ends KQNLLE; pET-28a(+) NdeI/XhoI, His tag; codon-optimized; E. coli SHuffle T7 Express; Ni-NTA purified; Precursor length printed as both 324 and 377 residues
As usually defined, the Km is the concentration of substrate that gives half-maximal velocity. The kcat is the maximal rate divided by the concentration of active sites. Consider B1, for which, in data set [1], the Km came to 66.8 ± 18.5 µM and the kcat came to 16.2 ± 1.8 s⁻¹. In data set [2], the Michaelis-Menten constant (Km) was 2830 ± 1560 µM and the turnover number (kcat) turned out to be 9.7 ± 1.8 s⁻¹.
